Patent US8158585B2, “Cross-β structure comprising amyloid-binding proteins and methods for detection of the cross-β structure, for modulating cross-β structures fiber formation and modulating cross-β structure-mediated toxicity” (CrossBeta Biosciences B.V., priority 2002, dated 2012)

Key:
[1] = molecular target: T1, fibrin fragment α148-160 FP13 (Homo sapiens, UniProt P02671); assay: Amyloid ELISA with tPA F-EGF-GST: FP13; format: binding
T1 construct: purchased Pepscan, Inc. or peptide synthesis facility of the Netherlands Cancer Institute; host or cells: chemical synthesis
Procedure: (§1) In order to define the affinity of the purified tPA F-EGF-GST recombinant protein, ELISAs were performed with immobilized amyloid (poly)peptides and non-amyloid control ΔmIAPP. Twenty-five μg ml^−1 of Aβ, FP13, IAPP or ΔmIAPP was immobilized on Exiqon peptide immobilizer plates. A concentration series of tPA F-EGF-GST in the presence of excess εACA was added to the wells and binding was assayed using anti-GST antibody Z-5. As a control, GST (Sigma-Aldrich, St. Louis, Mo., USA, catalogue #G-5663) was used at the same concentrations.

IAPP = molecular target: T2, IAPP (Homo sapiens, UniProt P10997); assay: Amyloid ELISA with tPA F-EGF-GST: IAPP; format: binding
T2 construct: purchased Pepscan, Inc. (The Netherlands) or peptide synthesis facility at the Netherlands Cancer Institute; host or cells: synthetic peptide
T2 sequence (P10997 34-70 limits assumed): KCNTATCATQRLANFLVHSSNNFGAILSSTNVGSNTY
Procedure: as §1

Aβ = molecular target: T3, Aβ (Homo sapiens, UniProt P05067); assay: Amyloid ELISA with tPA F-EGF-GST: Aβ; format: binding
T3 construct: Peptide Aβ (1-40), containing amino acids as present in the described human Alzheimer peptide; purchased Pepscan, Inc. or peptide synthesis facility of the Netherlands Cancer Institute; host or cells: chemical synthesis
Procedure: as §1

[2] = system: amyloid deposits in human brain inflicted by AD; assay: Immunohistochemistry: binding of tPA F-EGF to human AD brain; settings: 7 nM construct; Congo red fluorescence to locate amyloid
Procedure: Paraffin brain sections of a human inflicted with AD was a kind gift of Prof. Slootweg (Dept. of Pathology, UMC Utrecht). Sections were deparaffinized in a series of xylene-ethanol. Endogenous peroxidases were blocked with methanol/1.5% H2O2 for 15 minutes. After rinsing in H2O, sections were incubated with undiluted formic acid for ten minutes, followed by incubation in PBS for five minutes. Sections were blocked in 10% HPS in PBS for 15 minutes. Sections were exposed for two hours with 7 nM of tPA F-EGF-GST or GST in PBS/0.3% BSA. After three wash steps with PBS, sections were overlayed with 200 ng ml^−1 anti-GST antibody Z-5, for one hour. After washing, ready-to-use goat anti-rabbit Powervision (Immunologic, Duiven, The Netherlands, catalogue #DPVR-55AP) was applied and incubated for one hour. After washing, sections were stained for ten minutes with 3,3′-diamino benzidine (Sigma-Aldrich, St Louis, Mo., USA, catalogue #D-5905), followed by hematoxylin staining for ten seconds. After washing with H2O, sections were incubated with Congo red according to the manufacturer's recommendations (Sigma Diagnostics, St Louis, Mo., USA). […] Analysis of sections was performed on a Leica DMIRBE fluorescence microscope (Rijswijk, The Netherlands). Fluorescence of Congo red was analyzed using an excitation wavelength of 596 nm and an emission wavelength of 620 nm.

Aβ fibrils = molecular target: T4, Aβ fibrils (Homo sapiens, UniProt P05067); assay: Amyloid pull-down with insoluble Aβ fibers; format: binding; settings: conditioned BHK medium
T4 construct: Peptide Aβ (1-40), containing amino acids as present in the described human Alzheimer peptide; purchased Pepscan, Inc. (The Netherlands) or peptide synthesis facility at the Netherlands Cancer Institute; host or cells: synthetic peptide

IAPP fibrils = molecular target: T5, IAPP fibrils (Homo sapiens, UniProt P10997); assay: Amyloid pull-down with IAPP fibrils; format: binding; settings: conditioned BHK medium
T5 construct: purchased Pepscan, Inc. (The Netherlands) or peptide synthesis facility at the Netherlands Cancer Institute; host or cells: synthetic peptide
T5 sequence (P10997 34-70 limits assumed): T2 sequence (P10997 34-70 limits assumed)
Procedure: Conditioned medium of BHK cells expressing GST-tagged tPA F, F-EGF, EGF, K1, F-EGF-K1, FXII F, HGFa F, Fn F4, Fn F5, Fn F4-5 and GST was used for amyloid binding assays. At first, constructs were adjusted to approximately equal concentration using Western blots. Qualitative binding of the recombinant fragments were evaluated using a “pull-down” assay. To this end, the recombinantly made fragments were incubated with either Aβ or IAPP fibrils. Since these peptides form insoluble fibers, unbound proteins can be easily removed from the fibers following centrifugation. The pellets containing the bound fragments were subsequently washed several times. Bound fragments were solubilized in SDS-sample buffer and analyzed by PAGE, as were unbound proteins in the supernatant fraction and starting material. The gels were analyzed using immunoblotting analysis with the anti-GST antibody Z-5.

[3] = molecular target: T6, albumin-g6p (albumin-AGE) (Bos taurus, UniProt P02769); assay: ELISA: binding of tPA (f.l. tPA, K2-P tPA) to albumin-g6p, with Congo red competition; design: species or system bovine; settings: 20 nM tPA, increasing Congo red
T6 construct: Bovine serum albumin (BSA) fraction V pH 7.0; host or cells: bovine serum, fraction V
Procedure: (§2) Binding of tPA to albumin-g6p (four-week and 23-week incubations), albumin-glyceraldehyde, control albumin, human Hb-g6p (ten-week incubation), Hb control, or to Aβ (1-40) was tested using an enzyme-linked immunosorbent assay (ELISA) set-up. Albumin-g6p and control albumin (2.5 μg ml^−1 in coat buffer, 50 mM Na2CO3/NaHCO3 pH 9.6, 0.02% m/v NaN3, 50 μl/well) were immobilized for one hour at room temperature in 96-well protein Immobilizer plates (Exiqon, Vedbaek, Denmark). Aβ (1-40) (10 μg ml^−1 in coat buffer) was immobilized for 75 minutes at room temperature in a 96-well peptide Immobilizer plate (Exiqon, Vedbaek, Denmark). Control wells were incubated with coat buffer only. After a wash step with 200 μl of PBS/0.1% v/v Tween 20, plates were blocked with 300 μl of PBS/1% v/v Tween 20, for two hours at room temperature while shaking. All subsequent incubations were performed in PBS/0.1% v/v Tween 20 for one hour at room temperature while shaking, with volumes of 50 μl per well. After each incubation, wells were washed five times with 200 μl of PBS/0.1% v/v Tween 20. Increasing amounts of f.l. tPA or K2-P tPA was added in triplicate to coated wells and to control wells. […] Absorbance was read at 490 nm on a Vmax kinetic microplate reader (Molecular Devices, Sunnyvale, Calif., USA). […]

Aβ (1-40) = Aβ (1-40) (Homo sapiens, UniProt P05067); assay: ELISA: binding of tPA (f.l. tPA, K2-P tPA) to Aβ (1-40), with Congo red competition; design: Peptide Aβ (1-40), containing amino acids as present in the described human Alzheimer peptide; purchased Pepscan, Inc. or peptide synthesis facility of the Netherlands Cancer Institute; host or cells: chemical synthesis; settings: 40 nM tPA, 0-100 μM Congo red
Procedure: as §2

T4 sequence (P05067 672-711): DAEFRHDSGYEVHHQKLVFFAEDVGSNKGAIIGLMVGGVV
T6 sequence (P02769 25-607): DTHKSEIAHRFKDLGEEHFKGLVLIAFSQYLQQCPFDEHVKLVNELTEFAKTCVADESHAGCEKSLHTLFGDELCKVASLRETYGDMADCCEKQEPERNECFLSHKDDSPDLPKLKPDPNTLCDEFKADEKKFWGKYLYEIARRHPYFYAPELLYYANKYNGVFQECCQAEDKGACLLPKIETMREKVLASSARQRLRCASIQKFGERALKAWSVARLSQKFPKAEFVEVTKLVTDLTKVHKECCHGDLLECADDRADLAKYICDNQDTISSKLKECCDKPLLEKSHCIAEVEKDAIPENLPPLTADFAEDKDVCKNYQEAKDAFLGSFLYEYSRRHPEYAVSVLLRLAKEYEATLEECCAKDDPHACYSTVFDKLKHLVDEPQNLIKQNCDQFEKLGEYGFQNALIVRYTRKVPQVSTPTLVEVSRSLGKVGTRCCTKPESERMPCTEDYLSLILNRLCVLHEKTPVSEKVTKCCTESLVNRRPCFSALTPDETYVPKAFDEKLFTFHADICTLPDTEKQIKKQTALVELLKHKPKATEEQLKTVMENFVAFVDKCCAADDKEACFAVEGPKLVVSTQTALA
T3 sequence (P05067 672-711): as the sequence (P05067 672-711) above
Sequence of Aβ (1-40) (P05067 672-711): as above

“GST: glutathion-S-transferase tag alone, negative control” was tested, and the “binding to FP13” value [1] was “did not bind”, the “binding to IAPP” value (IAPP) was “did not bind” and the “binding to Aβ” value (Aβ) was “some binding”. The “binding to amyloid deposits in AD brain sections” value [2] was “did not show specific binding” and the “binding to Aβ fibers (pull-down, Western blot)” value (Aβ fibrils) was “remain in the supernatant”.

In the case of “HGFa F-GST: finger domain of human hepatocyte growth factor activator with GST tag”, the “binding to IAPP fibrils (pull-down, not shown)” value (IAPP fibrils) is reported as “specifically bind” and the “binding to Aβ fibers (pull-down, Western blot)” value (Aβ fibrils) is reported as “specifically bind”.

With `Nc1c(/N=N/c2ccc(-c3ccc(/N=N/c4cc(S(=O)(=O)O)c5ccccc5c4N)cc3)cc2)cc(S(=O)(=O)O)c2ccccc12` [Congo red] the “competition of tPA binding to albumin-g6p” value [3] was “competed” and the “competition of tPA binding to Aβ” value (Aβ (1-40)) was “competed”.
